For two molecules, binding result and EC50 results are on record in US20250101087A1 (AbbVie / Abbott, published 2025).

In one experiment the target is human Aβ 1-40 fibrils (human). Put plainly: direct binding ELISA. (In general: In an ELISA, binding on a coated surface is turned into a signal by an enzyme label.)
The target of a further experiment is T1, Mouse/Rat Aβ 1-40 (mouse/rat).
T1 construct: also called Aβ1-40 from rat and mouse
T1 peptide: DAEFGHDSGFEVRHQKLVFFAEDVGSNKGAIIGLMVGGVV
Put plainly: direct binding ELISA.

The target of experiment [1] is T2, amyloid plaques in human AD brain tissue (human, UniProt P05067 674-713).
T2 construct: Target presented in tissue sections; also called plaques in AD brain tissue
T2 sequence (P05067 674-713): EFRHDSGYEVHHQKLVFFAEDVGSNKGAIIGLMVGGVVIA
Put plainly: immunostaining of unfixed human AD cortex sections with biotinylated antibody, % area covered, 6 donors fitted together.

For the next experiment, the target named is T3, pEG7 Pyr …-Biotin (human).
T3 peptide: [pGlu]FRHGSGYEVHHQK-{Biotin′}
Briefly: direct binding ELISA, peptide coated 100 ng/well, average ± SD of three experiments. How it is done: (§1) Recombinant human Aβ biotinylated peptides were diluted in distilled water. Aβ peptides were diluted to a working concentration of 2 μg/mL, and 50 μL per well (100 ng/well) was added to 96-well half area high-binding ELISA plates. The plates were incubated overnight at 4° C. shaking at 100 rpm. Following coating, the plates were washed four times with 190 µL/well of 1×PBS using an automated plate washer. The plates were blocked with 190 µL/well of 2% BSA in DPBS and incubated for 1 hr. at RT. Reagents for ELISA were diluted in 0.25% BSA in DPBS.
(§2) After incubation for blocking, plates were washed four times with 190 μL/well of 1×PBS using automated plate washer. […] The plates were incubated for 30 min at RT. After four washes with PBS, 50 μL of TMB substrate was added into each well, and the plates were incubated at RT for about 5-10 min until color developed. The reaction was stopped by adding 50 μL per well of 2N sulfuric acid. Plates were read on a ClarioStar plate reader to obtain the absorbance at 450 nm (OD₄₅₀). […] Three independent experiments were performed.

Another experiment addresses T4, pEG6 Pyr …-Biotin (human).
T4 peptide: [pGlu]FRGDSGYEVHHQK-{Biotin′}
Described as above. As to the method: as §1, §2

The target in experiment [2] is T5, E3-16-EFRHDSGYEVHHQK-Biotin (human).
T5 construct: N-terminal glutamate is not pyroglutamated
T5 peptide: EFRHDSGYEVHHQK-{Biotin′}
The description is as above. As to the method:
as §1, §2

In another experiment the target is T6, pEG8 Pyr …-Biotin (human).
T6 peptide: [pGlu]FRHDGGYEVHHQK-{Biotin′}
The experiment is described as above. As to the method:
as §1, §2

The target of another experiment is T7, pE3-16 Pyr-…-Biotin (human).
T7 peptide: [pGlu]FRHDSGYEVHHQK-{Biotin′}
The experiment is described as above. As to the method:
as §1, §2

In the next experiment the target is T8, pEF10 Pyr …-Biotin (human).
T8 peptide: [pGlu]FRHDSGGEVHHQK-{Biotin′}
Described as above. How it is done:
as §1, §2

Experiment [3] addresses T2, amyloid plaques in human AD brain tissue. Put plainly: immunostaining of unfixed human AD cortex sections, % area covered, 6 donors fitted together.

Square brackets hold non-standard residues; d marks the D form. Primed or numbered codes have the meaning given here. Ends that are not written are not given here. pGlu = O=C1CC[C@@H](C(=O)O)N1; Biotin′ = not defined here

B1: AC-264713, hu Aβ (AC-264713) [hu IgG1/K] (antibody, V domains shown)
VH: EVQLQESGPGLVKPSQTLSLTCTFSGFSLSTSGMGVSWIRQPPGKGLEWLAHIYWDDDKRYNPYMKRRLTISKDTSKNQVSLKISSVTAADTAVYYCARRADDYDVGFAYWGQGTLVTVSS
VL: DIQMTQSPSSVSASVGDRVTITCLASQTIGTWLAWYQQKPGKSPKLLIYAATSLADGVPSRFSGSGSGTDFTLTISSLQPEDFATYYCQQLYSSPFTFGQGTKLEIKR
notes: It is the only humanized antibody described
In the case of B1, the binding result with human Aβ 1-40 fibrils and with Mouse/Rat Aβ 1-40 was “no binding” each time. Further, the EC50 (usually the concentration giving half of the maximal effect) in experiment [1] amounted to 0.4 µg/mL; in the experiment with pEG7 Pyr …-Biotin, 400 pM; in the experiment with pEG6 Pyr …-Biotin it was 500 pM; in [2], 900 pM; in the experiment with pEG8 Pyr …-Biotin it was 400 pM; with pE3-16 Pyr-…-Biotin, 300 pM. Moreover, the midpoint of the response in the experiment with pEF10 Pyr …-Biotin, the EC50, lay at 500 pM.

B2: Comparator Ab1 (antibody, human IgG1, kappa, V domains shown)
VH: QVQLVQSGAEVKKPGSSVKVSCKASGYDFTRYYINWVRQAPGQGLEWMGWINPGSGNTKYNEKFKGRVTITADESTSTAYMELSSLRSEDTAVYYCAREGITVYWGQGTTVTVSS
VL: DIVMTQTPLSLSVTPGQPASISCKSSQSLLYSRGKTYLNWLLQKPGQSPQLLIYAVSKLDSGVPDRFSGSGSGTDFTLKISRVEAEDVGVYYCVQGTHYPFTFGQGTKLEIKR
notes: Detected with anti-human IgG in the in vivo study; also called comparator antibody Ab1
In turn, B2 gave an EC50 in experiment [3] of 12 µg/mL.
